Results as given in patent US20190002511A1 (NATIONAL UNIVERSITY OF SINGAPORE, published 2019).
Substitutions are numbered along the chain they refer to. Names and notes keep the numbering of the source. Like-named read-outs stand apart in the source and are kept apart here. Square brackets hold non-standard residues; d marks the D form. Ends that are not written are not given here. β3hR = N=C(N)NCCC[C@H](N)CC(=O)O

Key:
[1] = molecular target: T1, human α-thrombin (recombinant) (human, UniProt P00734 328-363; P00734 364-622); test: thrombin amidolytic assay with S2238, tight-binding fit
Procedure: A and C. […] B and D. Residual thrombin amidolytic activities in presence of UV003 and UV004 were measured at different concentrations of S2238 and their Kᵢ were determined.
(§1) Thrombin amidolytic activity assays for all peptides were performed in 96-wells microtiter plates in 50 mM Tris buffer (pH 7.4) containing 100 mM NaCl and 1 mg/ml bovine serum albumin. […] The rates of formation of p-nitroaniline were followed by measuring the absorbance at 405 nm for 10 min with a Tecan InfinitePro M200 microplate reader from Tecan (Mannedorf, Switzerland). Dose-response curves were fitted using the GraphPad Prizm software (San Diego, Calif., USA) to calculate IC50 values and Hill coefficients. To measure the inhibitory constants, different concentrations of S2238 were used and the residual velocities were determined using the Morrison's tight binding equation. Inhibition of thrombin fibrinogenolytic activity of peptides were tested by measuring absorbance at 650 nm using a Sunrise microplate reader from Tecan (Mannedorf, Switzerland) as described previously [Koh C Y, et al., J Biol Chem 282: 29101-13 (2007)].

[2] = molecular target: T1, human α-thrombin (recombinant); test: cell-based or functional assay
[3] = molecular target: T1, human α-thrombin (recombinant); test: comparison of Ki values, thrombin amidolytic assay
Procedure: (§3) Thrombin amidolytic activity assays for all peptides were performed in 96-wells microtiter plates in 50 mM Tris buffer (pH 7.4) containing 100 mM NaCl and 1 mg/ml bovine serum albumin. […] Dose-response curves were fitted using the GraphPad Prizm software (San Diego, Calif., USA) to calculate IC50 values and Hill coefficients. To measure the inhibitory constants, different concentrations of S2238 were used and the residual velocities were determined using the Morrison's tight binding equation.

[4] = molecular target: T1, human α-thrombin (recombinant); test: cell-based or functional assay; remark: listed apart in the source
[5] = molecular target: T1, human α-thrombin (recombinant); test: cell-based or functional assay; remark: listed apart in the source
[6] = molecular target: T1, human α-thrombin (recombinant); test: thrombin amidolytic assay with S2238, double reciprocal (Lineweaver-Burke) plot
Procedure: (§2) Each data point is the mean±S.D. of at least three independent experiments.
as §1, with “To measure the inhibitory constants, different concentrations of S2238 were used and the residual velocities were determined using the Morrison's tight binding equation.” left out, “(2007)]. […] After different incubation times, reactions were quenched with 1% TFA (pH 1.8) and loaded onto a Jupiter Proteo column (4 μm, 90 Å, 100×1.0 mm) attached to a Dionex nano-HPLC system from Thermo Fisher Scientific (Waltham, Mass., USA) and eluted using an acetonitrile gradient with 0.05% TFA and 99.95% MilliQ water as eluent A and 0.05% TFA, 19.95% MilliQ water and 80% ACN as eluent B. Masses of all peaks were measured to identify cleavage products, which were subsequently quantified by integrating the peaks and calculating the area under the curves. […]” for “(2007)].”

[7] = molecular target: T1, human α-thrombin (recombinant); test: cell-based or functional assay; remark: listed apart in the source
bovine trypsin = bovine trypsin (bovine, UniProt P00760 24-246); test: cell-based or functional assay
bovine trypsin, sequence (P00760 24-246): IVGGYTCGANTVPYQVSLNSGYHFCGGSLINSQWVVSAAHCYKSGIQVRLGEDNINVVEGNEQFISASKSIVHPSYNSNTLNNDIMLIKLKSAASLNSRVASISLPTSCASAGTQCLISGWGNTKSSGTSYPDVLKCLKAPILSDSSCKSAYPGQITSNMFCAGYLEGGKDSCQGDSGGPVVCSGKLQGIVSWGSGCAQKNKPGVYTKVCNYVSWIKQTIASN

APC = test: cell-based or functional assay
kallikrein = test: cell-based or functional assay
bovine chymotrypsin = bovine chymotrypsin (bovine, UniProt P00766 1-245); test: cell-based or functional assay
fXIIa = test: cell-based or functional assay
fXIa = test: cell-based or functional assay
fVIIa = test: cell-based or functional assay
fVIIa, sequence (P08709 whole entry): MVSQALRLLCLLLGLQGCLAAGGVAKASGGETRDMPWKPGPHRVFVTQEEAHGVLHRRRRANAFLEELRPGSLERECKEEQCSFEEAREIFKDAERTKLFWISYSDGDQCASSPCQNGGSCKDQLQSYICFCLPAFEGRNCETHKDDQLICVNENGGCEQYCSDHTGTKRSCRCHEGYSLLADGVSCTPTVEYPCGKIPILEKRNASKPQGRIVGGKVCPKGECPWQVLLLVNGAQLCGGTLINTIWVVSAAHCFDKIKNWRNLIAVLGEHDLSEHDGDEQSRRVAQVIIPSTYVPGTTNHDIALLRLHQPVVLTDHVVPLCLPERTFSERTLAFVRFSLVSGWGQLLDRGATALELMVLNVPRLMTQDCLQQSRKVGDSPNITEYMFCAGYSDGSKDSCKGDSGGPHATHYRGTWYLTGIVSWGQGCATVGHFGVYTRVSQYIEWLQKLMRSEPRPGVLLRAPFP

fIXa = test: cell-based or functional assay
tPA = test: cell-based or functional assay
urokinase = test: cell-based or functional assay
fXa = test: cell-based or functional assay
fXa, sequence (P00742 whole entry): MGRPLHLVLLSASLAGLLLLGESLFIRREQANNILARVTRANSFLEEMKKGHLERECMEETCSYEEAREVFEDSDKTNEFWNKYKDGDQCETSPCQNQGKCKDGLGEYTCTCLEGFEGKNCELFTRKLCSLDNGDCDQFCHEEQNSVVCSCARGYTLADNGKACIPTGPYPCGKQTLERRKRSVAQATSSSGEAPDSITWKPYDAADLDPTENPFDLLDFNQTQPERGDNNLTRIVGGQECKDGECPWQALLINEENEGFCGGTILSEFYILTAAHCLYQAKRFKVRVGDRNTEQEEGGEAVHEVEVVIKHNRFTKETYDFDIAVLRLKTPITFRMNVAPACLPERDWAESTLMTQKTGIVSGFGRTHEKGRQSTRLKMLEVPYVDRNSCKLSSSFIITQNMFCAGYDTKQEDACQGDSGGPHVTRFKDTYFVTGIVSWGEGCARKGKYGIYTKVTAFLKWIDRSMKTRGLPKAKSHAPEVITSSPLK

plasmin = test: cell-based or functional assay
[8] = molecular target: T1, human α-thrombin (recombinant); test: thrombin amidolytic assay with S2238, Morrison tight-binding fit, competitive
Text: Data were fitted to the Morrison tight binding equation using GraphPad Prizm software. Each data point is the mean±S.D. of at least three experiments.
(§4) Each data point is the mean±S.D. of at least three independent experiments. […] Each data point is the mean±S.D. of at least three independent experiments. […] Each data point is the mean±S.D. of at least three experiments.

[9] = molecular target: T1, human α-thrombin (recombinant); test: thrombin amidolytic assay with S2238; column headed Affinity (nM)
Procedure: Each data point is the mean±S.D. of at least three experiments. […] Data were fitted to the Morrison tight binding equation using GraphPad Prizm software. Each data point is the mean±S.D. of at least three experiments.
as §3

[10] = molecular target: T1, human α-thrombin (recombinant); test: thrombin amidolytic assay with S2238, tight-binding fit; remark: listed apart in the source
Procedure: as §2
as §1, with “(2007)]. […] After different incubation times, reactions were quenched with 1% TFA (pH 1.8) and loaded onto a Jupiter Proteo column (4 μm, 90 Å, 100×1.0 mm) attached to a Dionex nano-HPLC system from Thermo Fisher Scientific (Waltham, Mass., USA) and eluted using an acetonitrile gradient with 0.05% TFA and 99.95% MilliQ water as eluent A and 0.05% TFA, 19.95% MilliQ water and 80% ACN as eluent B. Masses of all peaks were measured to identify cleavage products, which were subsequently quantified by integrating the peaks and calculating the area under the curves. To measure the effect of different pre-incubation times on the thrombin inhibitory activity, amidolytic assays were performed for various incubation times (up to 36 h).” for “(2007)].”

[11] = molecular target: T1, human α-thrombin (recombinant); test: comparison of Ki values
Procedure: as §3

[12] = molecular target: T1, human α-thrombin (recombinant); test: thrombin amidolytic assay with S2238, Morrison tight-binding fit, non-competitive
Procedure: as §4, §3

B1: UV015 (peptide)
peptide: SDEAVRAIPKMYSTAPPGDFEEIPDDAIEEGCCC
notes: Ultravariegin with C-terminal GCCC
Ki [1]: 0.00852 nM
IC50, inhibition of thrombin amidolytic activity [2]: 1 nM

B2: UV005 (peptide)
peptide: SDEAVRAIPKMYSTAPPGDFEEIPEEYLDDES
Ki [1]: 0.016 nM
fold drop in affinity against ultravariegin [3]: ~3.6 fold
IC50, inhibition of thrombin amidolytic activity [2]: 0.91 nM

B3: Variegin YS (peptide)
peptide: SDQGDVAEPKMYSTAPPFDFEAIPEEYLDDES
Ki [1]: 0.671 nM
IC50, inhibition of thrombin amidolytic activity [2]: 3.16 nM

B4: UV014 (peptide)
peptide: MYSTAPPGDFEEIPDDAIEEGCCC
notes: UV011 with C-terminal GCCC
Ki [1]: 2.47 nM
IC50, inhibition of thrombin amidolytic activity [2]: 1.98 nM

B5: avathrin L16P, G17P (peptide)
peptide: SGGHQTAVPKISKQGPPGDFEEIPSDEIIE
fold drop in activity against avathrin (amidolytic IC50) [4]: > 25 fold
IC50, inhibition of thrombin amidolytic activity (S2238) [5]: 181 nM

B6: β-avathrin (peptide)
peptide: SGGHQTAVP[β3hR]ISKQGLGGDFEEIPSDEIIE
fold loss of potency against avathrin (amidolytic IC50) [4]: > 100 fold
Ki [6]: 32 nM
IC50, inhibition of thrombin amidolytic activity (S2238) [5]: 332 nM

B7: avathrin (Amblyomma variegatum thrombin inhibitor) (peptide)
peptide: B5 peptide with P16L, P17G
notes: Synthetic 30-residue peptide; one repeat of precursor protein BAD29729
IC50, inhibition of thrombin amidolytic activity [7]: 6.95 nM
percent inhibition of amidolytic activity at 100 µM avathrin (bovine trypsin): < 30%
percent inhibition of amidolytic activity at 100 µM avathrin (APC): < 30%
percent inhibition of amidolytic activity at 100 µM avathrin (kallikrein): < 30%
percent inhibition of amidolytic activity at 100 µM avathrin (bovine chymotrypsin): < 30%
percent inhibition of amidolytic activity at 100 µM avathrin (fXIIa): < 30%
percent inhibition of amidolytic activity at 100 µM avathrin (fXIa): < 30%
percent inhibition of amidolytic activity at 100 µM avathrin (fVIIa): < 30%
IC50, inhibition of the amidolytic activity of clot-bound thrombin (S2238) [4]: 1.74 µM
IC50, inhibition of thrombin amidolytic activity, 10 min pre-incubation [4]: 4.86 nM
percent of thrombin amidolytic activity inhibited at 24 h of incubation (avathrin in about 30-fold excess) [4]: > 45%
percent inhibition of amidolytic activity at 100 µM avathrin (fIXa): < 30%
percent inhibition of amidolytic activity at 100 µM avathrin (tPA): < 30%
percent inhibition of amidolytic activity at 100 µM avathrin (urokinase): < 30%
percent inhibition of amidolytic activity at 100 µM avathrin (fXa): < 30%
percent inhibition of amidolytic activity at 100 µM avathrin (plasmin): < 30%
Ki [8]: 0.545 nM
Ki [9]: 0.545 nM
IC50, inhibition of thrombin amidolytic activity (S2238) [5]: 6.95 nM

B8: avathrin G2D, Q5D (peptide)
peptide: SDGHDTAVPKISKQGLGGDFEEIPSDEIIE
fold weaker inhibition against avathrin and QT26 [4]: < 2 fold
Ki [10]: 0.932 nM
IC50, inhibition of thrombin amidolytic activity (S2238) [5]: 13 nM

B9: avathrin K10R (peptide)
peptide: B8 peptide with D2G, D5Q, K10R
notes: also called K10R-avathrin
fold gain in activity against avathrin [4]: 5 fold
Ki [10]: 0.172 nM
IC50, inhibition of thrombin amidolytic activity (S2238) [5]: 1.15 nM

B10: avathrin S12H (peptide)
peptide: B8 peptide with D2G, D5Q, S12H
notes: also called 512H
fold loss of potency against avathrin (amidolytic IC50) [4]: 2 fold
Ki [10]: 1.23 nM
IC50, inhibition of thrombin amidolytic activity (S2238) [5]: 18.5 nM

B11: avathrin S12A (peptide)
peptide: B8 peptide with D2G, D5Q, S12A
fold change of IC50 against avathrin [4]: 20 fold
fold drop in potency against avathrin (amidolytic IC50) [4]: > 10 fold
Ki [6]: 6.08 nM
IC50, inhibition of thrombin amidolytic activity (S2238) [5]: 101 nM

B12: UV003 (peptide)
peptide: SDQGDVAIPKMYSTAPPGDFEEIPDDAIEE
Ki [1]: 0.00421 nM
IC50, inhibition of thrombin amidolytic activity [2]: 0.6 nM

B13: QT26 (peptide)
peptide: QTAVPKISKQGLGGDFEEIPSDEIIE
notes: Avathrin without its four N-terminal residues
IC50, inhibition of thrombin amidolytic activity, 10 min pre-incubation [4]: 13.5 nM
Ki [8]: 0.76 nM
IC50, inhibition of thrombin amidolytic activity (S2238) [5]: 8.94 nM

B14: UV004 (peptide)
peptide: SDEAVRAEPKMHKTAPPGDFEEIPDDAIEE
Ki [1]: 0.00455 nM
IC50, inhibition of thrombin amidolytic activity [2]: 0.46 nM

B15: UV012 (peptide)
peptide: SDEAVRAIPKMYSTAPPGDFEEIPDDEIEE
notes: Ultravariegin Ala27Glu
IC50, inhibition of thrombin amidolytic activity [2]: 0.94 nM

B16: UV013 (peptide)
peptide: B15 peptide with T14Q, E27A
notes: Ultravariegin Thr14Gln
IC50, inhibition of thrombin amidolytic activity [2]: 0.341 nM

B17: UV007 (peptide)
peptide: B15 peptide with S1C, E27A
notes: Ultravariegin with Cys at the N-terminus
Ki [1]: 0.00627 nM
IC50, inhibition of thrombin amidolytic activity [2]: 0.601 nM

B18: UV008 (peptide)
peptide: SDEAVRAIPKMYSTAPPGDFEEIPDDAIEECA
notes: Ultravariegin with C-terminal CA
Ki [1]: 0.0786 nM
IC50, inhibition of thrombin amidolytic activity [2]: 1.82 nM

B19: UV011 (peptide)
peptide: MYSTAPPGDFEEIPDDAIEE
notes: also called C-terminal cleavage product of ultravariegin
Ki [1]: 1.39 nM
fold better Ki than the avathrin C-terminal cleavage product IS20 [11]: ~4 fold
fold better Ki than the variegin C-terminal cleavage product MH22 [11]: ~10 fold
IC50, inhibition of thrombin amidolytic activity [2]: 1.66 nM

B20: IS20 (peptide)
peptide: ISKQGLGGDFEEIPSDEIIE
notes: Avathrin residues 11-30; also called C-terminal cleavage product of avathrin
IC50, inhibition of thrombin amidolytic activity, 0 min [4]: 12.4 nM
IC50, inhibition of thrombin amidolytic activity, 10 min pre-incubation [4]: 22.7 nM
Ki [12]: 5.76 nM
IC50, inhibition of thrombin amidolytic activity (S2238) [5]: 12.2 nM
